Here are results for 31 sequences from the supplement of paper PMC9170038.

The data set concerns MS2 coat protein. The experiment in a line: apparent KD of MS2 coat protein; designed switch direction (-1 OFF switch, 1 ON switch): -1; higher = weaker reporter binding. The essentials: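 Transcription of designed RNA switches on Illumina chips was done by stalled E. coli RNA polymerase. SNAP-549-labelled MS2 coat protein was then titrated in doubling steps from 0.7 or 1.5 nM to 3 µM, with steps of 0.8–1.5 h at the lowest and 10–20 min at the highest concentration. The per-design median over clusters of curve-fitted normalised fluorescence is reported as apparent KD.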

[1] abbreviates: Eterna round: R95, input ligand: FMN 200 uM.
The mark [2] stands for this setting: Eterna round: R95, input ligand: microRNA oligo, concentration not stated.
Setting [3] is: Eterna round: R95, input ligand: none.
[4] abbreviates: input ligand: microRNA oligo, concentration not stated.

As to “GCCUUAUCUGUCAGGAUAUACAAUAAAAUAAUUAUGUAGAAGGGACAUGAGGAUCACCCAUGUACAUUACAUUG [alecazam25] (Eterna round: R97, puzzle: Brourd's mod of Exclusion 4)”, the “apparent KD of MS2 coat protein” value by setting is: (input ligand: FMN 200 uM) 50 nM; (input ligand: none) 22 nM.
With “GCGAAAGCAAGCAAGUGAAACAUGAGGAUCACCCAUGUCCUCAUUUGUUCGUCUUAUAAGCUAUGCGAAAGCAUAGC [Sensor 3, v1 - 7] (puzzle: Sensor v3, turn-off variant 1)”, the “apparent KD of MS2 coat protein” value was found to be 18.4 nM under setting [1], 218 nM under setting [2] and 19.4 nM under setting [3].
“GCGAUUUCCGAGGAUAUCCUGCACACUAUCUAAGGAGAAGGCGGAACUUGAGGAUCACCCAAGUGCAUCCGAAU [Isusbe] (Eterna round: R97, puzzle: Exclusion 6)”: the “apparent KD of MS2 coat protein” value runs as follows: (input ligand: FMN 200 uM) 135 nM; (input ligand: none) 39.5 nM.
Take “GCGCACCUACCAAAAGGUAGGCCCACAUGAGGAUCACCCAUGUAGGAUAUCGAUUGCUUUGCAGUCGAGAAGGACGUGAUGCGC [JL ENG3 3.80 Mod 17] (Eterna round: R96, puzzle: Exclusion NG 3)”: the “apparent KD of MS2 coat protein” value runs as follows: (input ligand: FMN 200 uM) 25.7 nM; under setting [4], 11.6 nM; (input ligand: none) 18.3 nM.
Take “GCGCACUAAGUGAGGAUAUCGAUUUCUUUAAGGAUCGAGAAGGCACAUGAGGAUCACCCAUGUUUGACGUGCGC [JR_BMOE4_Sub097] (puzzle: Brourd's mod of Exclusion 4)”: under setting [2], the “apparent KD of MS2 coat protein” value is 15.5 nM.
On to “GCGCAGUCAGGAUAUGCCGCUGGCGAUCACCGUGGGCAAAGGCAGAAGGGACAUGAGGAUCACCCAUGUGGCGC [e4e Mirror Pins #2] (puzzle: Exclusion 4)”, for which the “apparent KD of MS2 coat protein” value under setting [2] is 39 nM.
As to “GCGCUGCGAGGAUAUACAUGAGGAUCACCCAUGUGUCGGCAGCCAUGUUAGUACAAAUGUAGAAGGCGCGUAAA [EX3 #61] (Eterna round: R97, puzzle: Exclusion 3)”, the “apparent KD of MS2 coat protein” value was 20.8 nM (input ligand: FMN 200 uM) and 18.3 nM (input ligand: none).
Turning to “GCGGAUUAUGUAGGAUAUCGGUCAGUUUCUGAUCGAGAAGGACAUGAGGAUCACCCAUGUAAAUUCCUCGCUUUGUGAGGCCGC [JL ENG1 3.64] (Eterna round: R96, puzzle: Exclusion NG 1)”, the “apparent KD of MS2 coat protein” value by setting is: (input ligand: FMN 200 uM) 31.5 nM; under setting [4], 15.6 nM; (input ligand: none) 17.8 nM.
Take “GCGGAUUAUGUAGGAUAUCGGUCAGUUUCUGAUCGAGAAGGACAUGAGGAUCACCCAUGUAAAUUGCUCGCUUUGUGAGCCCGC [JL ENG1 3.63] (Eterna round: R96, puzzle: Exclusion NG 1)”: the “apparent KD of MS2 coat protein” value (input ligand: FMN 200 uM) was 34.5 nM, the “apparent KD of MS2 coat protein” value under setting [4] came to 12.4 nM and the “apparent KD of MS2 coat protein” value (input ligand: none) came to 14.8 nM.
The like results for “GCGGGCCCGGGAGGAUAUACAUGAGGAUCACCCAUGUGGGCCCGGGCCCGCGGGCCCGGGCCCGUGUAGAAGGCCCGGGCCCGC [-64.9, -63.3 kcal, A 14%] (Eterna round: R96, puzzle: Exclusion NG 2)” were, in that order, 28 nM, 10.1 nM and 14.2 nM.
Take “GCGGUACAUGAGGAUCACCCAUGUCAGGAUAUCCGCUGUUUGUUGAUAAGCAGGCGGUGGAGAAGGGACUUCGC [-26.7, -26 kcal, 23% A] (Eterna round: R97, puzzle: Exclusion 1)”: the “apparent KD of MS2 coat protein” value (input ligand: FMN 200 uM) turned out to be 39.7 nM and the “apparent KD of MS2 coat protein” value (input ligand: none) came out at 33.8 nM.
With “GCGUAUGAGCAGGAUAUCCGACGGGAAUCCAAAGGAGAAGGGCUCACAUGAGGAUCACCCAUGUGGUCCAAAAC [Agediat] (puzzle: Exclusion 6)”, the “apparent KD of MS2 coat protein” value worked out at 109 nM under setting [1], 24 nM under setting [2] and 27.3 nM under setting [3].
With “GCGUGACAUGAGGAUCACCCAUGUGAGGAUAUCUGGAUACUCUUUAUUUUAGAUAUCCAGAGAAGGCACAUGCU [Ex1-3: 4Z] (puzzle: Exclusion 1)”, under setting [2], the “apparent KD of MS2 coat protein” value came to 191 nM.
As for “GCUAGGCAUGUCAGGAUAUGCAGAUCCUUGGAUCUGCAGAAGGGACAUGAGGAUCACCCAUGUGCCAACCUAGC [Mat - Exclusion 4 - JL Mod - D11] (Eterna round: R97, puzzle: Brourd's mod of Exclusion 4)”, the “apparent KD of MS2 coat protein” value (input ligand: FMN 200 uM) was 609 nM and the “apparent KD of MS2 coat protein” value (input ligand: none) came out at 47 nM.
The like results for “GCUAUGGGAGGAUAUACAUGAGGAUCACCCAUGUGUAGAGCAUACGCGCGCAUUAACAGUAGAAGGCCCUGCGU [Eternabot (L1) Solution 23] (Eterna round: R97, puzzle: Exclusion 3)” were, in that order, 50.7 nM and 49.4 nM.
Consider “GCUCACGCAGGAUAUACAUGAGGAUCACCCAUGUUCGAAGGGCGUGGGUACAAAGUCUGUAGAAGGGCGAAAAU [Edrereve] (Eterna round: R97, puzzle: Exclusion 3)”, for which the “apparent KD of MS2 coat protein” value turned out to be 20.6 nM (input ligand: FMN 200 uM) and 17.4 nM (input ligand: none).
As to “GCUCGAAGGAGUGGGAGCAACAUGAGGAUCACCCAUGUGCGGCUAUUUCAUGCUCGUCUUAAAGCUUUGCCCUAGCC [Eternabot (Original) Solution 40] (Eterna round: R97, puzzle: Sensor, turn-off variant 1)”, the “apparent KD of MS2 coat protein” value by setting is: (input ligand: FMN 200 uM) 17.2 nM; (input ligand: none) 18.5 nM.
For the sequence “GCUCGCGGGCAAGGAUAUCCUACGCUGUUCUGGUUCGUGUCUGUUACAUGAGGAUCACCCAUGUGGGAGAAGGUGCACCAGGGU [Design 49] (Eterna round: R96, puzzle: Exclusion NG 2)”, the “apparent KD of MS2 coat protein” value amounted to 17.5 nM (input ligand: FMN 200 uM), 12.4 nM under setting [4] and 20.1 nM (input ligand: none).
For the sequence “GCUGGACAAGGAUAUACAUGAGGAUCACCCAUGUGAUCAGCAGUCCUCGGACUGCAAUGUAGAAGGUGUCCAGC [E3/1-C2] (Eterna round: R97, puzzle: Exclusion 3)”, the “apparent KD of MS2 coat protein” value is, setting by setting: (input ligand: FMN 200 uM) 38.9 nM; (input ligand: none) 198 nM.
As for “GCUGGAGCAGGAUAUUCAAUAUCACACAUGAGGAUCACCCAUGUCCAGCGAAAGCUGGAGGGAGAAGGGCUCUAGC [Mat - Exclusion 5 - Eli mod - D98] (puzzle: Exclusion 5)”, the “apparent KD of MS2 coat protein” value under setting [1] stood at 17.6 nM, the “apparent KD of MS2 coat protein” value under setting [2] came to 60.4 nM and the “apparent KD of MS2 coat protein” value under setting [3] amounted to 76 nM.
On to “GCUGGUCAAGGAUAUGCAUUCGUGCUUCGGCACGUAAGGUCACAUGAGGAUCACCCAUGUAGAAGGUGACCAGC [E2/6-C1] (Eterna round: R97, puzzle: Exclusion 2)”, for which the “apparent KD of MS2 coat protein” value is 31.6 nM (input ligand: FMN 200 uM) and 20.9 nM (input ligand: none).
In the same order, the values of “GCUGGUCGAGGAUAUGCAUAUACUGGAUACAGUGGAAGGUCACAUGAGGAUCACCCAUGUAGAAGGCGACUAGC [EX2 #37] (Eterna round: R97, puzzle: Exclusion 2)” are 558 nM and 463 nM.
“GCUUCGGCAGGAUAUACAUGAGGAUCACCCAUGUGCUUCGGCUUGAUCAAGUUGAAGUGUAGAAGGGUUGAAGU [-25.5, -22.5 kcal, 26% A, 3 bis, 3 bis] (Eterna round: R97, puzzle: Exclusion 3)”: the “apparent KD of MS2 coat protein” value was found to be 36.8 nM (input ligand: FMN 200 uM) and 78.7 nM (input ligand: none).
As to “GCUUGCUUUUUGGUUUUCAACAUGAGGAUCACCCAUGUUCGUCUUGUGCUCGGGCUUGGGCGGUGUCCGGGUUUGGG [A 9%, less GC] (Eterna round: R97, puzzle: Sensor, turn-off variant 1)”, the “apparent KD of MS2 coat protein” value was determined as 55.8 nM (input ligand: FMN 200 uM) and 60.6 nM (input ligand: none).
Consider “GCUUGGCGAGGAUAUACAUGAGGAUCACCCAUGUGAGAAGAAUAAGUGAGGAAGAAAAGUAGAAGGCGCUGAGG [Mat - Exclusion 3 - Mod of Salish D62] (puzzle: Exclusion 3)”, for which the “apparent KD of MS2 coat protein” value under setting [1] was 56.1 nM, the “apparent KD of MS2 coat protein” value under setting [2] amounted to 30.4 nM and the “apparent KD of MS2 coat protein” value under setting [3] was determined as 37.6 nM.
Turning to “GCUUGUAGAGGAUAUACAAGGGCCCACGCGGCGAGAGCCGCACAUGAGGAUCACCCAUGUAGAAGGCUACUAUA [JL-ex2-4.23 ViennaUCT mod] (Eterna round: R97, puzzle: Exclusion 2)”, the “apparent KD of MS2 coat protein” value runs as follows: (input ligand: FMN 200 uM) 125 nM; (input ligand: none) 363 nM.
On to “GCUUGUGGGCAAGGAUAUCCUACGUUGUUCUGGUUCGUGUCUGUCACAUGAGGAUCACCCAUGUGGGAGAAGGUGCCUUUGGUG [Design 62] (Eterna round: R96, puzzle: Exclusion NG 2)”, for which the “apparent KD of MS2 coat protein” value by setting is: (input ligand: FMN 200 uM) 23.2 nM; under setting [4], 9.2 nM; (input ligand: none) 15.6 nM.
“GGAAAACAUGAGGAUCACCCAUGUAAGGAUAUGCAAAAGGAUAUAGAAGGAAAAUAAAGCAGAAGGUACAAAGG [salish99-ex1_r3_098] (puzzle: Exclusion 1)”: the “apparent KD of MS2 coat protein” value reads like this: under setting [1], 126 nM; under setting [2], 23.7 nM; under setting [3], 127 nM.
As to “GGAAAGCAAGGAUAUACAAGGAGAAGGAGGAAAGUAAAAGGACAUGAGGAUCACCCAUGUAGAAGGUGCGAGAG [JR_Exclu2_Sub039] (puzzle: Exclusion 2)”, the “apparent KD of MS2 coat protein” value reads like this: under setting [1], 31.9 nM; under setting [2], 29 nM; under setting [3], 43.5 nM.
“GGAAAGUGAGGAUAUGGUAAUUUAAUUAUUAAUUAAUUAAUCCAGAAGGCACAUGAGGAUCACCCAUGUAAAUG [Mat - Exclusion 4 - D91] (puzzle: Exclusion 4)”: the “apparent KD of MS2 coat protein” value under setting [2] was determined as 30 nM.
As for “GGAAGACAUGAGGAUCACCCAUGUAAGGAUAUCGAAGGUAUGAGAGGAAAGAGGUUAACGAGAAGGUACAGGUG [JR_Exclu1_Sub099] (puzzle: Exclusion 1)”, the “apparent KD of MS2 coat protein” value by setting is: under setting [1], 107 nM; under setting [2], 82 nM; under setting [3], 102 nM.
